The series concerns the molecule itself. The experiment in a line: SDS-resistant oligomers on SDS-PAGE immunoblot of the immunoprecipitate; anti-myc immunoprecipitate of the Mid51/Fis1 complex from HeLa lysate heated 20 min at 55°C, 4-20% Tris-Glycine SDS-PAGE; SDS-resistant complexes detected with anti-myc (Mid51 species) or anti-Flag (Fis1 species); species normalized to monomer.

Values joined by “and” are separate entries in the source; they are usually repeats but may differ in a detail not shown here. Identical values can stand only once.

B1: myc-tagged human Mid51 (WT) (natural protein, UniProt Q9NQG6 1-463, looked up)
chain: MAGAGERKGKKDDNGIGTAIDFVLSNARLVLGVGGAAMLGIATLAVKRMYDRAISAPTSPTRLSHSGKRSWEEPNWMGSPRLLNRDMKTGLSRSLQTLPTDSSTFDTDTFCPPRPKPVARKGQVDLKKSRLRMSLQEKLLTYYRNRAAIPAGEQARAKQAAVDICAELRSFLRAKLPDMPLRDMYLSGSLYDDLQVVTADHIQLIVPLVLEQNLWSCIPGEDTIMNVPGFFLVRRENPEYFPRGSSYWDRCVVGGYLSPKTVADTFEKVVAGSINWPAIGSLLDYVIRPAPPPEALTLEVQYERDKHLFIDFLPSVTLGDTVLVAKPHRLAQYDNLWRLSLRPAETARLRALDQADSGCRSLCLKILKAICKSTPALGHLTASQLTNVILHLAQEEADWSPDMLADRFLQALRGLISYLEAGVLPSALNPKVNLFAELTPEEIDELGYTLYCSLSEPEVLLQT
notes: Mid51 (MIEF1), human, outer mitochondrial membrane protein; plasmid generated using VectorBuilder; Seen as monomer, dimer, tetramer and HMW species on the IP immunoblot; also called MIEF1; WT Mid51; source: HeLa cells, transfected for 24 h, in lysate
Regarding B1, the stoichiometry N (usually the number of molecules, sites or subunits per partner or assembly) is 2 and 4.

B2: myc-tagged human Mid51(Y240N) (natural protein, UniProt Q9NQG6 1-463, looked up)
chain: MAGAGERKGKKDDNGIGTAIDFVLSNARLVLGVGGAAMLGIATLAVKRMYDRAISAPTSPTRLSHSGKRSWEEPNWMGSPRLLNRDMKTGLSRSLQTLPTDSSTFDTDTFCPPRPKPVARKGQVDLKKSRLRMSLQEKLLTYYRNRAAIPAGEQARAKQAAVDICAELRSFLRAKLPDMPLRDMYLSGSLYDDLQVVTADHIQLIVPLVLEQNLWSCIPGEDTIMNVPGFFLVRRENPENFPRGSSYWDRCVVGGYLSPKTVADTFEKVVAGSINWPAIGSLLDYVIRPAPPPEALTLEVQYERDKHLFIDFLPSVTLGDTVLVAKPHRLAQYDNLWRLSLRPAETARLRALDQADSGCRSLCLKILKAICKSTPALGHLTASQLTNVILHLAQEEADWSPDMLADRFLQALRGLISYLEAGVLPSALNPKVNLFAELTPEEIDELGYTLYCSLSEPEVLLQT
notes: Mid51 (MIEF1), human, variant Y240N linked to dominant optic atrophy; plasmid generated using VectorBuilder; source: HeLa cells, transfected for 24 h, in lysate
On to B2, for which the “stoichiometry N” value is 2 and 4.

Source of the values: PMC9437119 (The Journal of Cell Biology, 2022).
